Experimental data published in PMC6480404.

Key:
[1] = target: SpyCas9;AcrIIA2b (AcrIIA2b.3) (Streptococcus pyogenes;Listeria phage?, UniProt Q99ZW2;PDB:6MCC_3 1-1368;1-130, |); experiment: cryo-EM
[2] = target: SpyCas9;AcrIIA2 (AcrIIA2a.1) (Streptococcus pyogenes;Listeria …, UniProt Q99ZW2;PDB:6MCB_3 1-1368;1-123, |); experiment: cryo-EM
[3] = target: T1, AcrIIA2 (AcrIIA2a.1) (Listeria monocytogenes phage/prophage, UniProt PDB:6MCB_3 1-123); experiment: size-exclusion chromatography
T1 sequence: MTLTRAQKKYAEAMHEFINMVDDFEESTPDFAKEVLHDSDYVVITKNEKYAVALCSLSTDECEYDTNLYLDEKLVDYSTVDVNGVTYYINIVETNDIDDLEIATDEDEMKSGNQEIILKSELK

B1: sgRNA (structured_RNA)
RNA: GGCGCAUAAAGAUGAGACGCGUUUUAGAGCUAUGCUGUUUUGAAAAAAACAGCAUAGCAAGUUAAAAUAAGGCUAGUCCGUUAUCAACUUGAAAAAGUGGCACCGAGUCGGUGCUU
binding result [1]: binds
binding result [2]: binds
binding result [3]: no binding
